Starred links: 1 amine or outer side, 2 acyl side, 3 side chain; linkers in the order of their positions; H or OH if unused. Non-standard residues stand in square brackets, D forms with d. Groups on a side chain read outwards from the residue. No end group written: not given here. *: point of attachment. C20 diacid = O=C(O)CCCCCCCCCCCCCCCCCCC(=O)*; C18 diacid = O=C(O)CCCCCCCCCCCCCCCCC(=O)*; γGlu = O=C(O)[C@H](CCC(=O)[*:2])N[*:1]; αMeF = C[C@](N)(Cc1ccccc1)C(=O)O; AEEA = NCCOCCOCC(=O)O; Aib = CC(C)(N)C(=O)O
Key:
human glucagon receptor = human glucagon receptor (human, UniProt P47871); assay: cell-based or functional assay
human GLP-1 receptor = human GLP-1 receptor (human, UniProt P43220); assay: cell-based or functional assay

Row | Binder | cAMP production, hGluc-R EC50 (pM) (human glucagon receptor) | cAMP production, hGLP-1R EC50 (pM) (human GLP-1 receptor)
1 | H[Aib]HGS[αMeF]TSDVSK[αMeF]LDSK([AEEA-AEEA-γGlu-C18 diacid])AAQD[αMeF]VQ[Aib]IANT-NH2 (N-terminus assumed; SMILES CC[C@H](C)[C@H](NC(=O)C(C)(C)NC(=O)[C@H](CCC(N)=O)NC(=O)[C@@H](NC(=O)[C@](C)(Cc1ccccc1)NC(=O)[C@H](CC(=O)O)NC(=O)[C@H](CCC(N)=O)NC(=O)[C@H](C)NC(=O)[C@H](C)NC(=O)[C@H](CCCCNC(=O)COCCOCCNC(=O)COCCOCCNC(=O)CC[C@H](NC(=O)CCCCCCCCCCCCCCCCC(=O)O)C(=O)O)NC(=O)[C@H](CO)NC(=O)[C@H](CC(=O)O)NC(=O)[C@H](CC(C)C)NC(=O)[C@](C)(Cc1ccccc1)NC(=O)[C@H](CCCCN)NC(=O)[C@H](CO)NC(=O)[C@@H](NC(=O)[C@H](CC(=O)O)NC(=O)[C@H](CO)NC(=O)[C@@H](NC(=O)[C@](C)(Cc1ccccc1)NC(=O)[C@H](CO)NC(=O)CNC(=O)[C@H](Cc1c[nH]cn1)NC(=O)C(C)(C)NC(=O)[C@@H](N)Cc1c[nH]cn1)[C@@H](C)O)C(C)C)C(C)C)C(=O)N[C@@H](C)C(=O)N[C@@H](CC(N)=O)C(=O)N[C@H](C(N)=O)[C@@H](C)O) [Peptide 24] | 101 | 82.8
2 | H[Aib]QGTFTSDVSK[αMeF]LDSK([AEEA-AEEA-γGlu-C18 diacid])RAQDFVQ[Aib]LVAT-OH (N-terminus assumed; SMILES CC(C)C[C@H](NC(=O)C(C)(C)NC(=O)[C@H](CCC(N)=O)NC(=O)[C@@H](NC(=O)[C@H](Cc1ccccc1)NC(=O)[C@H](CC(=O)O)NC(=O)[C@H](CCC(N)=O)NC(=O)[C@H](C)NC(=O)[C@H](CCCNC(=N)N)NC(=O)[C@H](CCCCNC(=O)COCCOCCNC(=O)COCCOCCNC(=O)CC[C@H](NC(=O)CCCCCCCCCCCCCCCCC(=O)O)C(=O)O)NC(=O)[C@H](CO)NC(=O)[C@H](CC(=O)O)NC(=O)[C@H](CC(C)C)NC(=O)[C@](C)(Cc1ccccc1)NC(=O)[C@H](CCCCN)NC(=O)[C@H](CO)NC(=O)[C@@H](NC(=O)[C@H](CC(=O)O)NC(=O)[C@H](CO)NC(=O)[C@@H](NC(=O)[C@H](Cc1ccccc1)NC(=O)[C@@H](NC(=O)CNC(=O)[C@H](CCC(N)=O)NC(=O)C(C)(C)NC(=O)[C@@H](N)Cc1c[nH]cn1)[C@@H](C)O)[C@@H](C)O)C(C)C)C(C)C)C(=O)N[C@H](C(=O)N[C@@H](C)C(=O)N[C@H](C(=O)O)[C@@H](C)O)C(C)C) [Peptide 42] | 8190 | 665
3 | H[Aib]QGTFTSDVSK[αMeF]LDSK([AEEA-AEEA-γGlu-C18 diacid])RAQDFVQWLL[Aib]T-OH (N-terminus assumed; SMILES CC(C)C[C@H](NC(=O)[C@H](Cc1c[nH]c2ccccc12)NC(=O)[C@H](CCC(N)=O)NC(=O)[C@@H](NC(=O)[C@H](Cc1ccccc1)NC(=O)[C@H](CC(=O)O)NC(=O)[C@H](CCC(N)=O)NC(=O)[C@H](C)NC(=O)[C@H](CCCNC(=N)N)NC(=O)[C@H](CCCCNC(=O)COCCOCCNC(=O)COCCOCCNC(=O)CC[C@H](NC(=O)CCCCCCCCCCCCCCCCC(=O)O)C(=O)O)NC(=O)[C@H](CO)NC(=O)[C@H](CC(=O)O)NC(=O)[C@H](CC(C)C)NC(=O)[C@](C)(Cc1ccccc1)NC(=O)[C@H](CCCCN)NC(=O)[C@H](CO)NC(=O)[C@@H](NC(=O)[C@H](CC(=O)O)NC(=O)[C@H](CO)NC(=O)[C@@H](NC(=O)[C@H](Cc1ccccc1)NC(=O)[C@@H](NC(=O)CNC(=O)[C@H](CCC(N)=O)NC(=O)C(C)(C)NC(=O)[C@@H](N)Cc1c[nH]cn1)[C@@H](C)O)[C@@H](C)O)C(C)C)C(C)C)C(=O)N[C@@H](CC(C)C)C(=O)NC(C)(C)C(=O)N[C@H](C(=O)O)[C@@H](C)O) [Peptide 40] | 123 | 29.9
4 | H[Aib]HGS[αMeF]TSDVSK[αMeF]LDSK([AEEA-AEEA-γGlu-γGlu-C20 diacid])AAQD[αMeF]VQ[Aib]IANT-NH2 [Peptide 25] | 1310 | 726

Second part, the binder after the results:

Row | cAMP production, hGluc-R EC50 (pM) (human glucagon receptor) | cAMP production, hGLP-1R EC50 (pM) (human GLP-1 receptor) | Binder
5 | 629 | 107 | H[Aib]QGTFTSDVSK[αMeF]LDSK([AEEA-AEEA-γGlu-C18 diacid])RA[Aib]DFVQWLL[Aib]T-OH (N-terminus assumed; SMILES CC(C)C[C@H](NC(=O)[C@H](Cc1c[nH]c2ccccc12)NC(=O)[C@H](CCC(N)=O)NC(=O)[C@@H](NC(=O)[C@H](Cc1ccccc1)NC(=O)[C@H](CC(=O)O)NC(=O)C(C)(C)NC(=O)[C@H](C)NC(=O)[C@H](CCCNC(=N)N)NC(=O)[C@H](CCCCNC(=O)COCCOCCNC(=O)COCCOCCNC(=O)CC[C@H](NC(=O)CCCCCCCCCCCCCCCCC(=O)O)C(=O)O)NC(=O)[C@H](CO)NC(=O)[C@H](CC(=O)O)NC(=O)[C@H](CC(C)C)NC(=O)[C@](C)(Cc1ccccc1)NC(=O)[C@H](CCCCN)NC(=O)[C@H](CO)NC(=O)[C@@H](NC(=O)[C@H](CC(=O)O)NC(=O)[C@H](CO)NC(=O)[C@@H](NC(=O)[C@H](Cc1ccccc1)NC(=O)[C@@H](NC(=O)CNC(=O)[C@H](CCC(N)=O)NC(=O)C(C)(C)NC(=O)[C@@H](N)Cc1c[nH]cn1)[C@@H](C)O)[C@@H](C)O)C(C)C)C(C)C)C(=O)N[C@@H](CC(C)C)C(=O)NC(C)(C)C(=O)N[C@H](C(=O)O)[C@@H](C)O) [Peptide 29]
6 | 321 | 266 | H[Aib]HGS[αMeF]TSDVSK[αMeF]LDSK([AEEA-AEEA-γGlu-C18 diacid])AAQD[αMeF]VESIANT-NH2 (N-terminus assumed; SMILES CC[C@H](C)[C@H](NC(=O)[C@H](CO)NC(=O)[C@H](CCC(=O)O)NC(=O)[C@@H](NC(=O)[C@](C)(Cc1ccccc1)NC(=O)[C@H](CC(=O)O)NC(=O)[C@H](CCC(N)=O)NC(=O)[C@H](C)NC(=O)[C@H](C)NC(=O)[C@H](CCCCNC(=O)COCCOCCNC(=O)COCCOCCNC(=O)CC[C@H](NC(=O)CCCCCCCCCCCCCCCCC(=O)O)C(=O)O)NC(=O)[C@H](CO)NC(=O)[C@H](CC(=O)O)NC(=O)[C@H](CC(C)C)NC(=O)[C@](C)(Cc1ccccc1)NC(=O)[C@H](CCCCN)NC(=O)[C@H](CO)NC(=O)[C@@H](NC(=O)[C@H](CC(=O)O)NC(=O)[C@H](CO)NC(=O)[C@@H](NC(=O)[C@](C)(Cc1ccccc1)NC(=O)[C@H](CO)NC(=O)CNC(=O)[C@H](Cc1c[nH]cn1)NC(=O)C(C)(C)NC(=O)[C@@H](N)Cc1c[nH]cn1)[C@@H](C)O)C(C)C)C(C)C)C(=O)N[C@@H](C)C(=O)N[C@@H](CC(N)=O)C(=O)N[C@H](C(N)=O)[C@@H](C)O) [Peptide 23]
7 | 149 | 69 | HSQGS[αMeF]TSDVSK[αMeF]LDSK([γGlu-C18 diacid])AAQDFVQWIANT-NH2 (N-terminus assumed; SMILES CC[C@H](C)[C@H](NC(=O)[C@H](Cc1c[nH]c2ccccc12)NC(=O)[C@H](CCC(N)=O)NC(=O)[C@@H](NC(=O)[C@H](Cc1ccccc1)NC(=O)[C@H](CC(=O)O)NC(=O)[C@H](CCC(N)=O)NC(=O)[C@H](C)NC(=O)[C@H](C)NC(=O)[C@H](CCCCNC(=O)CC[C@H](NC(=O)CCCCCCCCCCCCCCCCC(=O)O)C(=O)O)NC(=O)[C@H](CO)NC(=O)[C@H](CC(=O)O)NC(=O)[C@H](CC(C)C)NC(=O)[C@](C)(Cc1ccccc1)NC(=O)[C@H](CCCCN)NC(=O)[C@H](CO)NC(=O)[C@@H](NC(=O)[C@H](CC(=O)O)NC(=O)[C@H](CO)NC(=O)[C@@H](NC(=O)[C@](C)(Cc1ccccc1)NC(=O)[C@H](CO)NC(=O)CNC(=O)[C@H](CCC(N)=O)NC(=O)[C@H](CO)NC(=O)[C@@H](N)Cc1c[nH]cn1)[C@@H](C)O)C(C)C)C(C)C)C(=O)N[C@@H](C)C(=O)N[C@@H](CC(N)=O)C(=O)N[C@H](C(N)=O)[C@@H](C)O) [Peptide 3]
8 | 4190 | 1280 | HSQGS[αMeF]TSDVSK[αMeF]LDSK([AEEA-AEEA-γGlu-C20 diacid])AAQD[αMeF]VQWIANT-NH2 (N-terminus assumed; SMILES CC[C@H](C)[C@H](NC(=O)[C@H](Cc1c[nH]c2ccccc12)NC(=O)[C@H](CCC(N)=O)NC(=O)[C@@H](NC(=O)[C@](C)(Cc1ccccc1)NC(=O)[C@H](CC(=O)O)NC(=O)[C@H](CCC(N)=O)NC(=O)[C@H](C)NC(=O)[C@H](C)NC(=O)[C@H](CCCCNC(=O)COCCOCCNC(=O)COCCOCCNC(=O)CC[C@H](NC(=O)CCCCCCCCCCCCCCCCCCC(=O)O)C(=O)O)NC(=O)[C@H](CO)NC(=O)[C@H](CC(=O)O)NC(=O)[C@H](CC(C)C)NC(=O)[C@](C)(Cc1ccccc1)NC(=O)[C@H](CCCCN)NC(=O)[C@H](CO)NC(=O)[C@@H](NC(=O)[C@H](CC(=O)O)NC(=O)[C@H](CO)NC(=O)[C@@H](NC(=O)[C@](C)(Cc1ccccc1)NC(=O)[C@H](CO)NC(=O)CNC(=O)[C@H](CCC(N)=O)NC(=O)[C@H](CO)NC(=O)[C@@H](N)Cc1c[nH]cn1)[C@@H](C)O)C(C)C)C(C)C)C(=O)N[C@@H](C)C(=O)N[C@@H](CC(N)=O)C(=O)N[C@H](C(N)=O)[C@@H](C)O) [Peptide 2]

Source: US12630600B2 (MEDIMMUNE LIMITED, priority 2022, dated 2026)
